According to US20060286092A1:

Tests used:
[1] = target: B7-H1 (full-length, expressed on BHK cells transfected with pZMP21 hB7-H1) (human) (UniProt Q9NZQ7); assay: flow cytometry (PE probe vs anti-CD8 APC) on BHK cells transfected with full-length B7-H1; no competitor
[2] = target: B7-H1 (full-length, expressed on BHK cells transfected with pZMP21 hB7-H1) (human) (UniProt Q9NZQ7); assay: flow cytometry on B7-H1-transfected BHK cells; competitor: excess unlabeled BTLA/mFc2
[3] = target: B7-H1 (full-length, expressed on BHK cells transfected with pZMP21 hB7-H1) (human) (UniProt Q9NZQ7); assay: flow cytometry on B7-H1-transfected BHK cells; competitor: excess unlabeled BTLA/mFc2 (row printed a second time)
[4] = target: B7-H1 (full-length, expressed on BHK cells transfected with pZMP21 hB7-H1) (human) (UniProt Q9NZQ7); assay: flow cytometry on B7-H1-transfected BHK cells; competitor: excess unlabeled NKp30/mFc2

Sequence of UniProt Q9NZQ7 (Q9NZQ7 19-290): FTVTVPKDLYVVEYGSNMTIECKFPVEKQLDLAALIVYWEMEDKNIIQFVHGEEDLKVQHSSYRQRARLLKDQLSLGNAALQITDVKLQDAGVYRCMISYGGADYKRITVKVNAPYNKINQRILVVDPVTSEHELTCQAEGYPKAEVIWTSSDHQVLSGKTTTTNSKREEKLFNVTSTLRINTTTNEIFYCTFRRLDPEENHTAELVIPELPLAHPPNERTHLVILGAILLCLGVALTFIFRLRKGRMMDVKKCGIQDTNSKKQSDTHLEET

Substance	% double positive [1]	% double positive [2]	% double positive [3]	% double positive [4]
BTLA/mFc2 (Fc fusion)	1.96%	–	–	–
PD-1/Fc (Fc fusion)	33.7%	28.8%	28.8%	31.4%
Zenon control	1.91%	–	–	–
